Read-outs that look alike come from different tables or passages of the source.
Tests used:
[1] = target: Drc (ssDNA-binding RNA Polymerase Cofactor), Pseudomonas virus LUZ7 gp14 (Pseudomonas virus LUZ7); assay: crystal structure
[2] = target: Drc(Δ67–99) (Pseudomonas virus LUZ7); assay: SEC
Drc (gp14) [3] = target: T1, Drc (gp14) (Pseudomonas phage LUZ7, UniProt C8ZKB3); assay: EMSA
T1 sequence: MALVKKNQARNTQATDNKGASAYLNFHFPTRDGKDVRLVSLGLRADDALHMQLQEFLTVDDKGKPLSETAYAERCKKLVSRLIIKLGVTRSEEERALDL

Drc (gp14) [4] = target: T1, Drc (gp14); assay: EMSA; remark: listed apart in the source

## Drc (ssDNA-binding RNA Polymerase Cofactor), Pseudomonas virus LUZ7 gp14 (natural protein)
[1]
  stoichiometry N: 2

## Drc(Δ67–99) (domain or fragment)
[2]
  stoichiometry N: 2

B1: internally melted duplex (dsDNA)
DNA 1: GGGCGGCGGTTTTTTTTTTGCGGGGCGG
DNA 2: CCGCCCCGCTTTTTTTTTTCCGCCGCCC
Drc (gp14) [3]
  binding result: binds

## TGAGTTTTTTTCATTTTTTGCGTAAATTTC (ssDNA) [30-nt ssDNA]
Drc (gp14) [4]
  binding result: binds
